According to paper PMC2839090:

Target: GST fused with the C-terminal variable region of LigB (LigBCtv; amino acids 1418-1889) (Leptospira interrogans serovar Pomona)
Assay: ITC

Kd: 8.55 µM
Substance: Human plasma fibronectin (natural protein)
